Test results as given in PMC3543382, “Elements of Transcriptional Machinery Are Compatible among Plants and Mammals” (PLoS ONE, 2013).

Biological target: RelA-ECFP (human, UniProt Q04206 1-551)
Test: cell-based or functional assay

Sequence of RelA-ECFP (Q04206 whole entry): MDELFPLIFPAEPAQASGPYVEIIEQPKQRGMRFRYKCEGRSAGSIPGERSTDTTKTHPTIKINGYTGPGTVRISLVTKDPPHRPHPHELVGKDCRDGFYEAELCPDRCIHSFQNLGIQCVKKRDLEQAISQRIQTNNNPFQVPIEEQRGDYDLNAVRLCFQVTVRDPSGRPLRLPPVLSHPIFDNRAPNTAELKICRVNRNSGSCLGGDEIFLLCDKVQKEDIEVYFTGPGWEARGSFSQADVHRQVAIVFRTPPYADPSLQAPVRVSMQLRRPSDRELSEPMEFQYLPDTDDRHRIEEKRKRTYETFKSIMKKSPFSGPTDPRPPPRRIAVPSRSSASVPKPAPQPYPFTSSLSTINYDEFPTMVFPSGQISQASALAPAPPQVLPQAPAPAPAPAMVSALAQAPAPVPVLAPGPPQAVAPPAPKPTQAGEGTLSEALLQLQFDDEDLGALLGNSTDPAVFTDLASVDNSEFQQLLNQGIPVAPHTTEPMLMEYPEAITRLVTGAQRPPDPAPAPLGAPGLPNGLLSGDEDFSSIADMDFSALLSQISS

transactivation of the IκBα-promoter EYFP reporter by the p50/RelA heterodimer in the presence of IκB (untagged proteins) in Arabidopsis protoplasts, EYFP/ECFP emission relative to the basal activity: 3.5 fold
B1: IκB-EYFP (natural protein, human, UniProt P25963 1-317, looked up)
chain: MFQAAERPQEWAMEGPRDGLKKERLLDDRHDSGLDSMKDEEYEQMVKELQEIRLEPQEVPRGSEPWKQQLTEDGDSFLHLAIIHEEKALTMEVIRQVKGDLAFLNFQNNLQQTPLHLAVITNQPEIAEALLGAGCDPELRDFRGNTPLHLACEQGCLASVGVLTQSCTTPHLHSILKATNYNGHTCLHLASIHGYLGIVELLVSLGADVNAQEPCNGRTALHLAVDLQNPDLVSLLLKCGADVNRVTYQGYSPYQLTWGRPSTRIQQQLGQLTLENLQMLPESEDEESYDTESEFTEFTEDELPYDDCVFGGQRLTL
